# Test results published in patent US20250197451A1, “USE OF BIOACTIVE POLYPEPTIDE SYNTHESIZED ON BASIS OF KDM2B SEQUENCE IN NEURAL DIFFERENTIATION AND REGENERATION AND REPAIR OF MESENCHYMAL STEM CELLS” (CAPITAL MEDICAL UNIVERSITY SCHOOL OF STOMATOLOGY, priority 2021, published 2025).
# Target: biotin-labelled EZH2 protein (UniProt Q15910)
# Assay: KDM2B peptide array probed with biotin-EZH2 1 ug/ml, SA-HRP/ECL
# biotin-labelled EZH2 protein, sequence (Q15910 whole entry): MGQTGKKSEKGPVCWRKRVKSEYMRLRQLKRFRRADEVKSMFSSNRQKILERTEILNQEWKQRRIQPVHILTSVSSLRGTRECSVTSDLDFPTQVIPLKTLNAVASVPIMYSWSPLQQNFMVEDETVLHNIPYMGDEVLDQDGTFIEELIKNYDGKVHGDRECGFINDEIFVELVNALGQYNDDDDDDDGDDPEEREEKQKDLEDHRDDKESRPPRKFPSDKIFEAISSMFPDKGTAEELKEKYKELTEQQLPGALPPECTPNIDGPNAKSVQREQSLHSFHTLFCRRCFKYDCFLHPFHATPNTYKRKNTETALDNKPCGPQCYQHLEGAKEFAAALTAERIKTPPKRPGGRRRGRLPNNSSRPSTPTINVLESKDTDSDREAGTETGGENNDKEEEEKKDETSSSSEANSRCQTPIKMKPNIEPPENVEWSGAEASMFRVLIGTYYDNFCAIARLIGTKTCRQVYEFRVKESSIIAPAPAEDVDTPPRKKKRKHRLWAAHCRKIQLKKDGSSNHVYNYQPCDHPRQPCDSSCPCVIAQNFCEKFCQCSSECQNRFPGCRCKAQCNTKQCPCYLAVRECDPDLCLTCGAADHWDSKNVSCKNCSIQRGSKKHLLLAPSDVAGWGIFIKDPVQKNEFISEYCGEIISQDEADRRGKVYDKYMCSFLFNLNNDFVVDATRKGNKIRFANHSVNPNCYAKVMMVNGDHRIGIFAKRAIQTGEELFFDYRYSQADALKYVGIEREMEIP
row,Intensity (%),Binder
1,0.25%,VLERYVYCVTQRSHL [peptide 74]
2,30.8%,CIMRQCIAPVLPHTA [peptide 130]
3,0.57%,QPKFRYPFYYEMCWY [peptide 71]
4,0.15%,IYEIEDRTRVQPKFR [peptide 69]
5,0.77%,LAVDYPKTPTGSPAT [peptide 98]
